{"source": "patent US20030032045", "target": "in vitro translated, 35S-labeled PARP (full length human poly(ADP-ribose) polymerase), P09874", "sequence (P09874 whole entry, looked up)": "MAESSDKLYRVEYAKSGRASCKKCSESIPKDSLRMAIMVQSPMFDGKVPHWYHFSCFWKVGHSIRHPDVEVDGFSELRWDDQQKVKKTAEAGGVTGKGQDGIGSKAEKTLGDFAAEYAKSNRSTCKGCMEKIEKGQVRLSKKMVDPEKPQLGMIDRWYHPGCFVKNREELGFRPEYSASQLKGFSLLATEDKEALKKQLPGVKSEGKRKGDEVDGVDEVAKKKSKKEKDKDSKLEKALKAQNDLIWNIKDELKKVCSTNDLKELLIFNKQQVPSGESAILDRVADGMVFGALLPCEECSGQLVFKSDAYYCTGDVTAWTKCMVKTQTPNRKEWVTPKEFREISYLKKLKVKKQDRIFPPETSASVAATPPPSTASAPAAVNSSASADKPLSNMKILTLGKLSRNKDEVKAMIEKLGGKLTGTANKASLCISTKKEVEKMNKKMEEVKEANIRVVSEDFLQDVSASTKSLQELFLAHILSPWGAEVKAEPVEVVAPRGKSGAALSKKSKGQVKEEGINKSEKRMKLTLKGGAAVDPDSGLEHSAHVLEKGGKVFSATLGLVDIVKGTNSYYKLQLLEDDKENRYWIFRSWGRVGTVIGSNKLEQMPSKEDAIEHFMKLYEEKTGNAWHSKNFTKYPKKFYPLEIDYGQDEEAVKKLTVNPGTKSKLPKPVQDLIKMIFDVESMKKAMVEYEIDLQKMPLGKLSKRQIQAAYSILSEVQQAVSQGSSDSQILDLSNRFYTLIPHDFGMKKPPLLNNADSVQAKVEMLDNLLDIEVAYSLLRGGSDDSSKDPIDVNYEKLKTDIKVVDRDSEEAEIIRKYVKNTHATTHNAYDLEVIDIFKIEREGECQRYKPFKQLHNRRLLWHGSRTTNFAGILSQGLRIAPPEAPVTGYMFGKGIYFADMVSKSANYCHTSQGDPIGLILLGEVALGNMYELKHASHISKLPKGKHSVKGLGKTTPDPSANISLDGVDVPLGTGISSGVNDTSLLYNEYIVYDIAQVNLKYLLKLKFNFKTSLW", "data": [{"protein": "CPP32 (endogenous, in HeLa cell S-100) (protein) MENTENSVDSKSIKNLEPKIIHGSESMDSGISLDNSYKMDYPEMGLCIIINNKNFHKSTGMTSRSGTDVDAANLRETFRNLKYEVRNKNDLTREEIVELMRDVSKEDHSKRSSFVCVLLSHGEEGIIFGTNGPVDLKKITNFFRGDRCRSLTGKPKLFIIQACRGTELDCGIETDSGVDDDMACHKIPVEADFLYAYSTAPGYYSWRNSKDGSWFIQSLCAMLKQYADKLEFMHILTRVNRKVATEFESFSFDATFHAKKQIPCIVSMLTKELYFYH", "values": [{"measurement": "cleavage of 35S-labeled PARP (SDS-PAGE, autoradiography)", "result": "The activated extracts readily cleaved PARP into 85 kDa and 24 kDa fragments"}]}]}
